The values that follow come from patent publication US20250295772A1 (ABATA THERAPEUTICS, published 2025).

In the experiment the target is T1, preproinsulin 73-90 peptide complexed with HLA-DRB1*04:01 (human, UniProt P01903 26-254; P01911 30-266).
T1 MHC II alpha: not shown
T1 MHC II beta: not shown
T1 peptide: GAGSLQPLALEGSLQKRG
Briefly: cell-based or functional assay.

B1: TCR-F (TCR)
TCR alpha: EDQVTQSPEALRLQEGESSSLNCSYTVSGLRGLFWYRQDPGKGPEFLFTLYSAGEEKEKERLKATLTKKESFLHITAPKPEDSATYLCAVQATGYALNFGKGTSLLVTPHIQNPDPAVYQLRDSKSSDKSVCLFTDFDSQTNVSQSKDSDVYITDKTVLDMRSMDFKSNSAVAWSNKSDFACANAFNNSIIPEDTFFPSPESSCDVKLVEKSFETDTNLNFQNLSVIGFRILLLKVAGFNLLMTLRLWSS
TCR beta: GAGVSQSPSNKVTEKGKDVELRCDPISGHTALYWYRQSLGQGLEFLIYFQGNSAPDKSGLPSDRFSAERTGGSVSTLTIQRTQQEDSAVYLCASNLGGSRQPQHFGDGTRLSILEDLNKVFPPEVAVFEPSEAEISHTQKATLVCLATGFFPDHVELSWWVNGKEVHSGVSTDPQPLKEQPALNDSRYCLSSRLRVSATFWQNPRNHFRCQVQFYGLSENDEWTQDRAKPVTQIVSAEAWGRADCGFTSVSYQQGVLSATILYEILLGKATLYAVLVSALVLMAMVKRKDF
For the molecule B1, the “EC50 (nM) of CD69 upregulation, conventional CD4+ T cells + BLS-DRB1*04:01 cells, peptide titrated” value (from here on “EC50 (nM) of CD69 upregulation”) was 1.5 nM.

B2: TCR-F DS (TCR)
TCR alpha: EDQVTQSPEALRLQEGESSSLNCSYTVSGLRGLFWYRQDPGKGPEFLFTLYSAGEEKEKERLKATLTKKESFLHITAPKPEDSATYLCAVQATGYALNFGKGTSLLVTPHIQNPDPAVYQLRDSKSSDKSVCLFTDFDSQTNVSQSKDSDVYITDKCVLDMRSMDFKSNSAVAWSNKSDFACANAFNNSIIPEDTFFPSPESSCDVKLVEKSFETDTNLNFQNLSVIGFRILLLKVAGFNLLMTLRLWSS
TCR beta: GAGVSQSPSNKVTEKGKDVELRCDPISGHTALYWYRQSLGQGLEFLIYFQGNSAPDKSGLPSDRFSAERTGGSVSTLTIQRTQQEDSAVYLCASNLGGSRQPQHFGDGTRLSILEDLNKVFPPEVAVFEPSEAEISHTQKATLVCLATGFFPDHVELSWWVNGKEVHSGVCTDPQPLKEQPALNDSRYCLSSRLRVSATFWQNPRNHFRCQVQFYGLSENDEWTQDRAKPVTQIVSAEAWGRADCGFTSVSYQQGVLSATILYEILLGKATLYAVLVSALVLMAMVKRKDF
With B2, the “EC50 (nM) of CD69 upregulation” value was found to be 1.36 nM.

B3: TCR-B (TCR)
TCR alpha: EDKVVQSPLSLVVHEGDTVTLNCSYEVTNFRSLLWYKQEKKAPTFLFMLTSSGIEKKSGRLSSILDKKELFSILNITATQTGDSAVYLCAVNSGAGSYQLTFGKGTKLSVIPNIQNPDPAVYQLRDSKSSDKSVCLFTDFDSQTNVSQSKDSDVYITDKTVLDMRSMDFKSNSAVAWSNKSDFACANAFNNSIIPEDTFFPSPESSCDVKLVEKSFETDTNLNFQNLSVIGFRILLLKVAGFNLLMTLRLWSS
TCR beta: DAEITQSPRHKITETGRQVTLACHQTWNHNNMFWYRQDLGHGLRLIHYSYGVQDTNKGEVSDGYSVSRSNTEDLPLTLESAASSQTSVYFCASSSGGLYEQYFGPGTRLTVTEDLKNVFPPEVAVFEPSEAEISHTQKATLVCLATGFYPDHVELSWWVNGKEVHSGVSTDPQPLKEQPALNDSRYCLSSRLRVSATFWQNPRNHFRCQVQFYGLSENDEWTQDRAKPVTQIVSAEAWGRADCGFTSESYQQGVLSATILYEILLGKATLYAVLVSALVLMAMVKRKDSRG
For B3, the “EC50 (nM) of CD69 upregulation” value amounted to 5.68 nM.

B4: TCR-B DS (TCR)
TCR alpha: EDKVVQSPLSLVVHEGDTVTLNCSYEVTNFRSLLWYKQEKKAPTFLFMLTSSGIEKKSGRLSSILDKKELFSILNITATQTGDSAVYLCAVNSGAGSYQLTFGKGTKLSVIPNIQNPDPAVYQLRDSKSSDKSVCLFTDFDSQTNVSQSKDSDVYITDKCVLDMRSMDFKSNSAVAWSNKSDFACANAFNNSIIPEDTFFPSPESSCDVKLVEKSFETDTNLNFQNLSVIGFRILLLKVAGFNLLMTLRLWSS
TCR beta: DAEITQSPRHKITETGRQVTLACHQTWNHNNMFWYRQDLGHGLRLIHYSYGVQDTNKGEVSDGYSVSRSNTEDLPLTLESAASSQTSVYFCASSSGGLYEQYFGPGTRLTVTEDLKNVFPPEVAVFEPSEAEISHTQKATLVCLATGFYPDHVELSWWVNGKEVHSGVCTDPQPLKEQPALNDSRYCLSSRLRVSATFWQNPRNHFRCQVQFYGLSENDEWTQDRAKPVTQIVSAEAWGRADCGFTSESYQQGVLSATILYEILLGKATLYAVLVSALVLMAMVKRKDSRG
B4: the “EC50 (nM) of CD69 upregulation” value was found to be 3.78 nM.

B5: TCR-D (TCR)
TCR alpha: NSVTQMEGPVTLSEEAFLTINCTYTATGYPSLFWYVQYPGEGLQLLLKATKADDKGSNKGFEATYRKETTSFHLEKGSVQVSDSAVYFCALSEKTSYDKVIFGPGTSLSVIPNIQNPDPAVYQLRDSKSSDKSVCLFTDFDSQTNVSQSKDSDVYITDKTVLDMRSMDFKSNSAVAWSNKSDFACANAFNNSIIPEDTFFPSPESSCDVKLVEKSFETDTNLNFQNLSVIGFRILLLKVAGFNLLMTLRLWSS
TCR beta: NAGVTQTPKFRILKIGQSMTLQCTQDMNHNYMYWYRQDPGMGLKLIYYSVGAGITDKGEVPNGYNVSRSTTEDFPLRLELAAPSQTSVYFCASSYGPGGSEAFFGQGTRLTVVEDLNKVFPPEVAVFEPSEAEISHTQKATLVCLATGFFPDHVELSWWVNGKEVHSGVSTDPQPLKEQPALNDSRYCLSSRLRVSATFWQNPRNHFRCQVQFYGLSENDEWTQDRAKPVTQIVSAEAWGRADCGFTSVSYQQGVLSATILYEILLGKATLYAVLVSALVLMAMVKRKDF
Consider B5, for which the “EC50 (nM) of CD69 upregulation” value worked out at 4.42 nM.

B6: TCR-E (TCR)
TCR alpha: NSVTQMEGPVTLSEEAFLTINCTYTATGYPSLFWYVQYPGEGLQLLLKATKADDKGSNKGFEATYRKETTSFHLEKGSVQVSDSAVYFCALSVKTSYDKVIFGPGTSLSVIPNIQNPDPAVYQLRDSKSSDKSVCLFTDFDSQTNVSQSKDSDVYITDKTVLDMRSMDFKSNSAVAWSNKSDFACANAFNNSIIPEDTFFPSPESSCDVKLVEKSFETDTNLNFQNLSVIGFRILLLKVAGFNLLMTLRLWSS
TCR beta: NAGVTQTPKFQVLKTGQSMTLQCAQDMNHNSMYWYRQDPGMGLRLIYYSASEGTTDKGEVPNGYNVSRLNKREFSLRLESAAPSQTSVYFCASSRDRGPETQYFGPGTRLLVLEDLKNVFPPEVAVFEPSEAEISHTQKATLVCLATGFYPDHVELSWWVNGKEVHSGVSTDPQPLKEQPALNDSRYCLSSRLRVSATFWQNPRNHFRCQVQFYGLSENDEWTQDRAKPVTQIVSAEAWGRADCGFTSESYQQGVLSATILYEILLGKATLYAVLVSALVLMAMVKRKDSRG
On to B6, for which the “EC50 (nM) of CD69 upregulation” value is 7.78 nM.

B7: TCR-E DS (TCR)
TCR alpha: NSVTQMEGPVTLSEEAFLTINCTYTATGYPSLFWYVQYPGEGLQLLLKATKADDKGSNKGFEATYRKETTSFHLEKGSVQVSDSAVYFCALSVKTSYDKVIFGPGTSLSVIPNIQNPDPAVYQLRDSKSSDKSVCLFTDFDSQTNVSQSKDSDVYITDKCVLDMRSMDFKSNSAVAWSNKSDFACANAFNNSIIPEDTFFPSPESSCDVKLVEKSFETDTNLNFQNLSVIGFRILLLKVAGFNLLMTLRLWSS
TCR beta: NAGVTQTPKFQVLKTGQSMTLQCAQDMNHNSMYWYRQDPGMGLRLIYYSASEGTTDKGEVPNGYNVSRLNKREFSLRLESAAPSQTSVYFCASSRDRGPETQYFGPGTRLLVLEDLKNVFPPEVAVFEPSEAEISHTQKATLVCLATGFYPDHVELSWWVNGKEVHSGVCTDPQPLKEQPALNDSRYCLSSRLRVSATFWQNPRNHFRCQVQFYGLSENDEWTQDRAKPVTQIVSAEAWGRADCGFTSESYQQGVLSATILYEILLGKATLYAVLVSALVLMAMVKRKDSRG
Consider B7, for which the “EC50 (nM) of CD69 upregulation” value was 3.47 nM.

B8: TCR-D DS (TCR)
TCR alpha: NSVTQMEGPVTLSEEAFLTINCTYTATGYPSLFWYVQYPGEGLQLLLKATKADDKGSNKGFEATYRKETTSFHLEKGSVQVSDSAVYFCALSEKTSYDKVIFGPGTSLSVIPNIQNPDPAVYQLRDSKSSDKSVCLFTDFDSQTNVSQSKDSDVYITDKCVLDMRSMDFKSNSAVAWSNKSDFACANAFNNSIIPEDTFFPSPESSCDVKLVEKSFETDTNLNFQNLSVIGFRILLLKVAGFNLLMTLRLWSS
TCR beta: NAGVTQTPKFRILKIGQSMTLQCTQDMNHNYMYWYRQDPGMGLKLIYYSVGAGITDKGEVPNGYNVSRSTTEDFPLRLELAAPSQTSVYFCASSYGPGGSEAFFGQGTRLTVVEDLNKVFPPEVAVFEPSEAEISHTQKATLVCLATGFFPDHVELSWWVNGKEVHSGVCTDPQPLKEQPALNDSRYCLSSRLRVSATFWQNPRNHFRCQVQFYGLSENDEWTQDRAKPVTQIVSAEAWGRADCGFTSVSYQQGVLSATILYEILLGKATLYAVLVSALVLMAMVKRKDF
With B8, the “EC50 (nM) of CD69 upregulation” value was 2.18 nM.

B9: TCR-C (TCR)
TCR alpha: RGNGKNQVEQSPQSLIILEGKNCTLQCNYTVSPFSNLRWYKQDTGRGPVSLTIMTFSENTKSNGRYTATLDADTKQSSLHITASQLSDSASYICVVGPSGGSNYKLTFGKGTLLTVNPNIQNPDPAVYQLRDSKSSDKSVCLFTDFDSQTNVSQSKDSDVYITDKTVLDMRSMDFKSNSAVAWSNKSDFACANAFNNSIIPEDTFFPSPESSCDVKLVEKSFETDTNLNFQNLSVIGFRILLLKVAGFNLLMTLRLWSS
TCR beta: DSGVTQTPKHLITATGQRVTLRCSPRSGDLSVYWYQQSLDQGLQFLIQYYNGEERAKGNILERFSAQQFPDLHSELNLSSLELGDSALYFCASSGQGFLGNTEAFFGQGTRLTVVEDLNKVFPPEVAVFEPSEAEISHTQKATLVCLATGFFPDHVELSWWVNGKEVHSGVSTDPQPLKEQPALNDSRYCLSSRLRVSATFWQNPRNHFRCQVQFYGLSENDEWTQDRAKPVTQIVSAEAWGRADCGFTSVSYQQGVLSATILYEILLGKATLYAVLVSALVLMAMVKRKDF
Regarding B9, the “EC50 (nM) of CD69 upregulation” value came to 156 nM.

B10: TCR-C DS (TCR)
TCR alpha: RGNGKNQVEQSPQSLIILEGKNCTLQCNYTVSPFSNLRWYKQDTGRGPVSLTIMTFSENTKSNGRYTATLDADTKQSSLHITASQLSDSASYICVVGPSGGSNYKLTFGKGTLLTVNPNIQNPDPAVYQLRDSKSSDKSVCLFTDFDSQTNVSQSKDSDVYITDKCVLDMRSMDFKSNSAVAWSNKSDFACANAFNNSIIPEDTFFPSPESSCDVKLVEKSFETDTNLNFQNLSVIGFRILLLKVAGFNLLMTLRLWSS
TCR beta: DSGVTQTPKHLITATGQRVTLRCSPRSGDLSVYWYQQSLDQGLQFLIQYYNGEERAKGNILERFSAQQFPDLHSELNLSSLELGDSALYFCASSGQGFLGNTEAFFGQGTRLTVVEDLNKVFPPEVAVFEPSEAEISHTQKATLVCLATGFFPDHVELSWWVNGKEVHSGVCTDPQPLKEQPALNDSRYCLSSRLRVSATFWQNPRNHFRCQVQFYGLSENDEWTQDRAKPVTQIVSAEAWGRADCGFTSVSYQQGVLSATILYEILLGKATLYAVLVSALVLMAMVKRKDF
As to B10, the “EC50 (nM) of CD69 upregulation” value was 24.2 nM.
